According to PMC11051826, “Screening and Application of DNA Aptamers for Heparin-Binding Protein”:
Residue numbers refer to the chain shown, from its start.

T1: Heparin-binding protein (HBP) (Homo sapiens, UniProt P20160 27-248)
T1 sequence: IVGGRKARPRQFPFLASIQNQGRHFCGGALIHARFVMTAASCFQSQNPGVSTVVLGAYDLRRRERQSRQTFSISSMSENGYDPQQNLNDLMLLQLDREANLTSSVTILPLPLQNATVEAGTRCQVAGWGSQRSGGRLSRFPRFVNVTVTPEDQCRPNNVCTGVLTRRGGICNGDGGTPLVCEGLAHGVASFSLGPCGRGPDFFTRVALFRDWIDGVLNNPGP

T2: Procalcitonin (PCT) (UniProt P01258 26-141)
T2 sequence: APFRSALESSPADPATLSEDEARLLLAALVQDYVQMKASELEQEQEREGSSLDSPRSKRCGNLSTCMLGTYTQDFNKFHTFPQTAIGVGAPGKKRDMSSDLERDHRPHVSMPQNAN

T3: C-reactive protein (CRP) (UniProt P02741 19-224)
T3 sequence: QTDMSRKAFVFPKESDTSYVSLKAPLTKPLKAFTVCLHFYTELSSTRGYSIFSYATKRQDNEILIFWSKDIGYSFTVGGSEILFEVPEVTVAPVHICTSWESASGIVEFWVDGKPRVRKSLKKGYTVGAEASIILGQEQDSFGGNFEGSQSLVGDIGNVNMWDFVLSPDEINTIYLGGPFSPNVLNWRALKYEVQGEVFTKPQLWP

T4: Serum amyloid A1 (SAA1) (UniProt P0DJI8 19-122)
T4 sequence: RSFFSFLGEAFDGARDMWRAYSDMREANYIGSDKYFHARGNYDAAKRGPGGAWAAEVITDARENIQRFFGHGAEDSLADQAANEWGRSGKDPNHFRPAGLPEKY

B1: Apt-12 (ssDNA)
DNA: TTCAGCACTCCACGCATAGCTTCACCTACTGGCATATGCCTCAGTCCACTCCTGGACCTATGCGTGCTACCGTGAA
B2: Apt-07 (ssDNA)
DNA: TTCAGCACTCCACGCATAGCCTTGCCTACCGGACGAAGTACTCAGTCACTCCGTGACCTATGCGTGCTACCGTGAA
B3: Apt-03 (ssDNA)
DNA: TTCAGCACTCCACGCATAGCTTCACCTACGAACGCCAGTGACAGCACCGATCAGTGCCTATGCGTGCTACCGTGAA
B4: Apt-15 (ssDNA)
DNA: TTCAGCACTCCACGCATAGCTTCACCTACTGCCCTAGCTCAGCCGTCTCCATCCGGCCTATGCGTGCTACCGTGAA
B5: Apt-08 (ssDNA)
DNA: TTCAGCACTCCACGCATAGCTCATCGCGAGCGACACGTTACCGTGCTTTACTACCGCCTATGCGTGCTACCGTGAA
B6: Apt-14 (ssDNA)
DNA: TTCAGCACTCCACGCATAGCTTCACCTACCGCCAATCAGCTCAGTGTGTCTCCACACCTATGCGTGCTACCGTGAA
B7: Apt-20 (ssDNA)
DNA: TTCAGCACTCCACGCATAGCTTCACCTACCGCCGAAGGCTCAGTCCGTGCTTCGGACCTATGCGTGCTACCGTGAA
B8: Apt-09 (ssDNA)
DNA: TTCAGCACTCCACGCATAGCCTTGCCTACCGATCCTGGATCTCAGCTGTACCACAGCCTATGCGTGCTACCGTGAA
B9: Apt-04 (ssDNA)
DNA: TTCAGCACTCCACGCATAGCTTCATCTACCCCGCCAAGGTCAGCCACGTCAGTGTGCCTATGCGTGCTACCGTGAA
B10: Apt-05 (ssDNA)
DNA: TTCAGCACTCCACGCATAGCTTCACCTACACCGCGACCGCGTTCAGCCTCTGCAGGCCTATGCGTGCTACCGTGAA
B11: Apt-18 (ssDNA)
DNA: TTCAGCACTCCACGCATAGCTTTACCTACCGCATCGCTCAGTCAACCATTGGTGGACCTATGCGTGCTACCGTGAA
B12: Apt-01 (ssDNA)
DNA: TTCAGCACTCCACGCATAGCTTCACCTACCGCAATCCGTTGCTCAGTGCTACCGCACCTATGCGTGCTACCGTGAA
B13: Apt-02 (ssDNA)
DNA: TTCAGCACTCCACGCATAGCTTCACCTACCGCGCAGCTCAGTCGTTGCCCACACGACCTATGCGTGCTACCGTGAA
B14: Apt-13 (ssDNA)
DNA: B5 DNA with G28C, A29T, C36T, T38C, C41G, G43A, C55T

These binders were tested against T1, Heparin-binding protein (HBP) (assay: SPR; SPR: Biacore T200, CM5 with 815 RU HBP, aptamer 0-1 uM in PBS (NaCl 137 mM, KCl 2.67 mM, Na2HPO4 10 mM, KH2PO4 2 mM, pH 7.4; composition given for CD), 25 C; flow: 500 nM aptamer, PBS, room temperature, 60 min). Settings: protein: commercial.

Q: For B1, which binding signal is on record?
A: 107 RU

Q: For B2, which binding signal is on record?
A: 76.2 RU

Q: How did the binding signal turn out when B3 was run?
A: 119 RU

Q: For B4, which binding signal is on record?
A: 72.5 RU

Q: Which binding signal does the source give for B5 here?
A: 79 RU

Q: How did the binding signal turn out when B6 was run?
A: 50.3 RU

Q: B7 was tested. Which binding signal did it give?
A: 99 RU

Q: B8 was tested. Which binding signal did it give?
A: 87.5 RU

Q: How did the binding signal turn out when B9 was run?
A: 121 RU

Q: For B10, which binding signal is on record?
A: 132 RU

Q: For B11, which binding signal is on record?
A: 41.2 RU

Same assay, conditions: protein: commercial; label: FAM in flow cytometry

Q: B12 was tested. Which binding signal did it give?
A: 424 RU

Q: With B13 as the binder, how does the binding signal read?
A: 162 RU

These binders were tested against T1, Heparin-binding protein (HBP) (assay: SPR; HBP immobilized, PBS, 25 C; SPR: Biacore T200, CM5 with 815 RU HBP, aptamer 0-1 uM in PBS (NaCl 137 mM, KCl 2.67 mM, Na2HPO4 10 mM, KH2PO4 2 mM, pH 7.4; composition given for CD), 25 C; flow: 500 nM aptamer, PBS, room temperature, 60 min). Settings: protein: commercial; label: FAM in flow cytometry.

Q: B14 was tested. Which Kd did it give?
A: 1.04 nM

Q: Which Kd does the source give for B12 here?
A: 3.42 nM

Q: Which Kd does the source give for B13 here?
A: 1.44 nM

What follows are binders tested against T2, Procalcitonin (PCT) (assay: flow cytometry (magnetic beads); 500 nM aptamer; SPR: Biacore T200, CM5 with 815 RU HBP, aptamer 0-1 uM in PBS (NaCl 137 mM, KCl 2.67 mM, Na2HPO4 10 mM, KH2PO4 2 mM, pH 7.4; composition given for CD), 25 C; flow: 500 nM aptamer, PBS, room temperature, 60 min). Settings: protein: commercial; label: FAM in flow cytometry.

Q: Does B14 bind?
A: no binding

Q: Does B12 bind?
A: no binding

Q: Does B13 bind?
A: no binding

The binders below were run against T3, C-reactive protein (CRP) in the same assay as above. Settings: protein: commercial; chain copies: 5; label: FAM in flow cytometry.

Q: Does B14 bind?
A: no binding

Q: Does B12 bind?
A: no binding

Q: Does B13 bind?
A: no binding

Each binder was assayed against T4, Serum amyloid A1 (SAA1) in the same assay as above. Settings: protein: commercial; label: FAM in flow cytometry.

Q: Does B14 bind?
A: no binding

Q: Does B12 bind?
A: no binding

Q: Does B13 bind?
A: no binding

What follows are binders tested against Interleukin-6 (IL-6) (UniProt P05231 30-212) in the same assay as above. Settings: protein: commercial; label: FAM in flow cytometry.
Interleukin-6 (IL-6), sequence (P05231 30-212): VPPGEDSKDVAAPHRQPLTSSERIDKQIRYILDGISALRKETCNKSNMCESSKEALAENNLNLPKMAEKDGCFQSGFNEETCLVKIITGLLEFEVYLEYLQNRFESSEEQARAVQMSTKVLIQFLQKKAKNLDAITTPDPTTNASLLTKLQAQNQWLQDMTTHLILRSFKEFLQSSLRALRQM

Q: Does B14 bind?
A: no binding

Q: Does B12 bind?
A: no binding

Q: Does B13 bind?
A: no binding
